2 sequences from patent US20220195418 can be followed below.

This series concerns the target T7 RNAP PACE variant L2-108.2 (mutations only in figure) (bacteriophage T7) (UniProt P00573). The series is described as follows: cell_activity. Conditions: lacZ reporter; relative to starting RNAP on T7 promoter.

As to “AATTAACCCTCACTAAA (double strand) [T3 promoter]”, the activity worked out at 270%.

On to “TAATACGACTCACTATA (double strand) [T7 promoter]”, for which the activity was determined as 100%.
